Assay results: PMC4231716

Target: HIV-1JR-FLΔCT Env trimer (HIV-1 JR-FL) (UniProt Q75760)
Assay: flow cytometry on cells

Work on “C34-Ig, fusion protein of an immunoglobulin Fc and the gp41 HR2 peptide (Fc fusion)” yielded a percent of Env-expressing cells binding C34-Ig of 37%.
